# Measured values taken from publication PMC7881012, “Human ACE2 peptide-mimics block SARS-CoV-2 pulmonary cells infection” (Communications Biology, 2021).
# Ends that are not written are not given here.
# B1: P10 (designed binder)
# peptide: SALEEQYKTFLDKFMHELEDLLYQLAL
# notes: also called peptide P10; source: synthetic peptide (solid-phase synthesis on rink amide resin, HPLC purified)
# B2: P8 (designed binder)
# peptide: SALEEQLKTFLDKFMHELEDLLYQLAL-NH2
# notes: also called peptide P8
# B3: P9 (designed binder)
# peptide: SALEEQYKTFLDKFMHELEDLLYQLSL
# notes: also called peptide P9
# Target: T1, Fc-tagged 2019-nCoV RBD-SD1 (SARS-CoV-2 (2019-nCoV), UniProt P0DTC2 319-591)
# T1 construct: source: bought: Sanyou Biopharmaceuticals Co. Ltd
# Experiment: BLI
# Conditions: both partners purified
row,Binder,Kd [nM]
1,B1,0.03 ± 0.01
2,B2,24 ± 11
3,B3,0.09 ± 0.08
